Experiment [1] deals with c-Met on human cancer cells (MKN45 gastric cancer cells; NCI-H441 lung cancer cells) (human) (UniProt P08581). Kind of experiment: cell-based or functional assay.
The target in experiment [2] is human c-Met protein (human) (UniProt P08581). Kind of experiment: SPR (Biacore), antibody immobilized on CM5 chip, human c-Met protein 0.39-100 nM injected.
Chain of human c-Met protein (human) (P08581 25-932 limits assumed): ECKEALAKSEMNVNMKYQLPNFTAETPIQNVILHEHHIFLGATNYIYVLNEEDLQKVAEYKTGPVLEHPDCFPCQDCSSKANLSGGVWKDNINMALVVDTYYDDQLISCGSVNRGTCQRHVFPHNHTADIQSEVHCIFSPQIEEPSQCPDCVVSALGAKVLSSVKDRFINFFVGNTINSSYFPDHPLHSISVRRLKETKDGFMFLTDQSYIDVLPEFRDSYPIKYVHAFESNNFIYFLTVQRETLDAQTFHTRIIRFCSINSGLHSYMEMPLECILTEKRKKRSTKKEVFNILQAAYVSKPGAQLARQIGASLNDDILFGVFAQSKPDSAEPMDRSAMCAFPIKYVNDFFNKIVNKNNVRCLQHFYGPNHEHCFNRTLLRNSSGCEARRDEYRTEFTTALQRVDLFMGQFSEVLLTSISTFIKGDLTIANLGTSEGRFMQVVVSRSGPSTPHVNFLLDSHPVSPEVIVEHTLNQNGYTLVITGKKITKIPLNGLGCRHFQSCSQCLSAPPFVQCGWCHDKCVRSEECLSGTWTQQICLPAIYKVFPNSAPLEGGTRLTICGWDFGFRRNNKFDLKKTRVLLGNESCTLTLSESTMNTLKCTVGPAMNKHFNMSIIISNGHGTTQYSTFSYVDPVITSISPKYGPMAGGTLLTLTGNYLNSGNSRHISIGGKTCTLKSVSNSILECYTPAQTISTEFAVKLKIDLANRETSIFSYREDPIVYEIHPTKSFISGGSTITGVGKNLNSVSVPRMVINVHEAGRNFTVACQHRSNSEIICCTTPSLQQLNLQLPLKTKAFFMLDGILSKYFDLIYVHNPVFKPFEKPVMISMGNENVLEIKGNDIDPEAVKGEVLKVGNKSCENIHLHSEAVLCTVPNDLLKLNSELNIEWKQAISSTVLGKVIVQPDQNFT

Chain of c-Met on human cancer cells (MKN45 gastric cancer cells; NCI-H441 lung cancer cells) (human) (P08581 25-1390): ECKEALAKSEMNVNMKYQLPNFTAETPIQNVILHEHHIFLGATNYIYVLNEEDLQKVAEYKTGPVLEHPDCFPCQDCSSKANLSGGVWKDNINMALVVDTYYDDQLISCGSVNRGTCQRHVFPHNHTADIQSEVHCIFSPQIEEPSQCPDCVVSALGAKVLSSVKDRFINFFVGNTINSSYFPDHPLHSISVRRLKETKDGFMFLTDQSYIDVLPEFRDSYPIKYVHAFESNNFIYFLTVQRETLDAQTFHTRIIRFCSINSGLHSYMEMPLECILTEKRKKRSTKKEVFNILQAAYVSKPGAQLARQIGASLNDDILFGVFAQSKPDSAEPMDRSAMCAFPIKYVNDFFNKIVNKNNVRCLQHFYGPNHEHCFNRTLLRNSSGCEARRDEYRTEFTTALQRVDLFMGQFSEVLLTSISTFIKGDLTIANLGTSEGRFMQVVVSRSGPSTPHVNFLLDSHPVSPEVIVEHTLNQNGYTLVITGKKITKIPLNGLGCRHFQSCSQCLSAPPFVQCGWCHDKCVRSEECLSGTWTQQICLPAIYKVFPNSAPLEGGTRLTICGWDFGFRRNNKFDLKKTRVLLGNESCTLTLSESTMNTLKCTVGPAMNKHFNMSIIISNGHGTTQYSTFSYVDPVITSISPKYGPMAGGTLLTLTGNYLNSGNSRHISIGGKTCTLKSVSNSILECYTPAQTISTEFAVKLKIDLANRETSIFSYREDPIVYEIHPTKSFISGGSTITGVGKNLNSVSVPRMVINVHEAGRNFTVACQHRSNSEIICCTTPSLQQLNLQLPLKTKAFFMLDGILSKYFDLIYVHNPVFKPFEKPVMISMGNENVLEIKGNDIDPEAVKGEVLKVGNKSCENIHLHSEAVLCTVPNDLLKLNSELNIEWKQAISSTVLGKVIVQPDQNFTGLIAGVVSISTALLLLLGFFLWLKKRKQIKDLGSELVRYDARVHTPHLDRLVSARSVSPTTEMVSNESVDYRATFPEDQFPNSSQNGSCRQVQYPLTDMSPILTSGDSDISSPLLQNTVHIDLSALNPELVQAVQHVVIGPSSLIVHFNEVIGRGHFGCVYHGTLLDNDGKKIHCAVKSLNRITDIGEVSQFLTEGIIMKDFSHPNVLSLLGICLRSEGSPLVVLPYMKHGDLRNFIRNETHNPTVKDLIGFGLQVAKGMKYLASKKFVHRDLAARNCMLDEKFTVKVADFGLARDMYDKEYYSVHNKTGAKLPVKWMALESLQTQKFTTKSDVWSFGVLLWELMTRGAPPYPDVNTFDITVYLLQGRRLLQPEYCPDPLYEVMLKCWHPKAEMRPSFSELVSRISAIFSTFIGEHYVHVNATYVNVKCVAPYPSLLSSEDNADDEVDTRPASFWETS

B1: huAbF46-H4-A1 (antibody, from a related filing, V domains shown)
VH: EVQLVESGGGLVQPGGSLRLSCAASGFTFTDYYMSWVRQAPGKGLEWLGFIRNKANGYTTEYSASVKGRFTISRDNSKNTLYLQMNSLRAEDTAVYYCARDNWFAYWGQGTLVTVSS
VL: DIQMTQSPSSLSASVGDRVTITCKSSQSLLASGNQNNYLAWHQQKPGKAPKMLIIWASTRVSGVPSRFSGSGSGTDFTLTISSLQPEDFATYYCQQSYSRPYTFGQGTKVEIKR
As usually defined, the Kd is the free concentration of one partner at which half of the binding sites on the other are occupied at equilibrium, for simple one-to-one binding. A low value points to a tighter complex. Usually koff stands for a measure of how fast the partners let go of each other. Broadly, the kon is the rate constant with which the complex forms. A lower kon goes with slower complex formation. In experiment [1], B1 had a BrdU assay on NCI-H441 cells (agonism), 10 ug/ml of 25% and a degree of degradation of c-Met (total c-Met ELISA, MKN45 cells, 5 ug/ml, 24 hours) of 37%. In experiment [2], this molecule returned a dissociation constant (Kd) of 0.06 nM, a koff of 4.53e-05 s⁻¹ and an association rate constant (kon) of 739000 M⁻¹ s⁻¹.

Values taken from patent publication US20150140014A1.
